Assay results as given in US20210380703A1.

Molecular target: human Fc (human)
Assay: ELISA, negative control

| Binder | optical density |
| --- | --- |
| 373_A05 (antibody, V domains shown) VH: EVQLLESGGGLVQPGGSLRLSCAASGFTFSDYSMNWVRQAPGKGLEWVSGINYNSGYKSYADSVKGRFTISRDNSKNTLYLQMNSLRAEDTAVYYCARGANWHDTHLDYWGQGTLVTVSS VL: DIQMTQSPSSLSASVGDRVTITCRASQSILSYVNWYQQKPGKAPKLVIYAATSRHSGVPSRFSGSGSGTDFTLTISSLQPEDFATYYCQQSYESPLTFGGGTKVEIK | 0.172 OD |
| 373_F11 (antibody, V domains shown) VH: EVQLLESGGGLVQPGGSLRLSCAASGFTFDSYGMHWVRQAPGKGLEWVSGINYNSGYTSYADSVKGRFTISRDNSKNTLYLQMNSLRAEDTAVYYCARGANWHDTHLDYWGQGTLVTVSS VL: DIQMTQSPSSLSASVGDRVTITCRASQSIVSYVNWYQQKPGKAPKLLIYAATSRASGVPSRFSGSGSGTDFTLTISSLQPEDFATYYCQQSYNLPLTFGGGTKVEIK | 0.204 OD |
| 373_C10 (antibody, V domains shown) VH: EVQLLESGGGLVQPGGSLRLSCAASGFTFSSYSMNWVRQAPGKGLEWVAGINYNGGYTSYADSVKGRFTISRDNSKNTLYLQMNSLRAEDTAVYYCARGANWHDTALDYWGQGTLVTVSS VL: DIQMTQSPSSLSASVGDRVTITCRASQSILTYVNWYQQKPGKAPKLLIYAATSRASGVPSRFSGSGSGTDFTLTISSLQPEDFATYYCQQSYDNPLTFGGGTKVEIK | 0.318 OD |
| 373_B05 (antibody, V domains shown) VH: EVQLLESGGGLVQPGGSLRLSCAASGFTFSDYSMNWVRQAPGKGLEWVSNINYNGGYKSYADSVKGRFTISRDNSKNTLYLQMNSLRAEDTAVYYCARGANWHDTALDYWGQGTLVTVSS VL: DIQMTQSPSSLSASVGDRVTITCRASQSIVTYLNWYQQKPGKAPKLVIYAATSRASGVPSRFSGSGSGTDFTLTISSLQPEDFATYYCQQSYSNPLTFGGGTKVEIK | 0.184 OD |
| 373_D03 (antibody, V domains shown) VH: EVQLLESGGGLVQPGGSLRLSCAASGFTFSSYSMNWVRQAPGKGLEWVSGINYNGGYTSYADSVKGRFTISRDNSKNTLYLQMNSLRAEDTAVYYCARGANWHDTALDYWGQGTLVTVSS VL: DIQMTQSPSSLSASVGDRVTITCRASQSIVSYLNWYQQKPGKAPKLLIYAATSLASGVPSRFSGSGSGTDFTLTISSLQPEDFATYYCQQSYDTPLTFGGGTKVEIK | 0.18 OD |
| 374_A06 (antibody, V domains shown) VH: EVQLLESGGGLVQPGGSLRLSCAASGFTFSSYSMNWVRQAPGKGLEWVSSINYNSGYTSYADSVKGRFTISRDNSKNTLYLQMNSLRAEDTAVYYCARGANWHDTHLDYWGQGTLVTVSS VL: DIQMTQSPSSLSASVGDRVTITCRASQSILSYLNWYQQKPGKAPKLVIYAATSRASGVPSRFSGSGSGTDFTLTISSLQPEDFATYYCQQSYDSPLTFGGGTKVEIK | 0.173 OD |
| 373_F08 (antibody, V domains shown) VH: EVQLLESGGGLVQPGGSLRLSCAASGFTFSSYSMNWVRQAPGKGLEWVSGINYNGGYTSYADSVKGRFTISRDNSKNTLYLQMNSLRAEDTAVYYCARGANWHDTALDYWGQGTLVTVSS VL: DIQMTQSPSSLSASVGDRVTITCRASQSILTYLNWYQQKPGKAPKLLIYAATSRASGVPSRFSGSGSGTDFTLTISSLQPEDFATYYCQQSYDTPLTFGGGTKVEIK | 0.202 OD |
| 373_D12 (antibody, V domains shown) VH: EVQLLESGGGLVQPGGSLRLSCAASGFTFDSYSMNWVRQAPGKGLEWVSSINYNSGYKGYADSVKGRFTISRDNSKNTLYLQMNSLRAEDTAVYYCARGANWHDTHLDYWGQGTLVTVSS VL: DIQMTQSPSSLSASVGDRVTITCRASQSILSYVNWYQQKPGKAPKLLIYAATSRASGVPSRFSGSGSGTDFTLTISSLQPEDFATYYCQQSYSLPLTFGGGTKVEIK | 0.224 OD |
| 373_C03 (antibody, V domains shown) VH: EVQLLESGGGLVQPGGSLRLSCAASGFTFSSYSMNWVRQAPGKGLEWVSGINYNGGYKSYADSVKGRFTISRDNSKNTLYLQMNSLRAEDTAVYYCARGANWHDTALDYWGQGTLVTVSS VL: DIQMTQSPSSLSASVGDRVTITCRASQSIVTYLNWYQQKPGKAPKLVIYAATSRASGVPSRFSGSGSGTDFTLTISSLQPEDFATYYCQQSYDSPLTFGGGTKVEIK | 0.171 OD |
| 373_E10 (antibody, V domains shown) VH: EVQLLESGGGLVQPGGSLRLSCAASGFTFSDYSMNWVRQAPGKGLEWVSGINYNGGYTSYADSVKGRFTISRDNSKNTLYLQMNSLRAEDTAVYYCARGANWHDTALDYWGQGTLVTVSS VL: DIQMTQSPSSLSASVGDRVTITCRASQSILTYVNWYQQKPGKAPKLVIYAATSRHSGVPSRFSGSGSGTDFTLTISSLQPEDFATYYCQQSYETPLTFGGGTKVEIK | 0.188 OD |
| 373_B07 (antibody, V domains shown) VH: EVQLLESGGGLVQPGGSLRLSCAASGFTFDSYSMNWVRQAPGKGLEWVSGINYNGGYTSYADSVKGRFTISRDNSKNTLYLQMNSLRAEDTAVYYCARGANWHDTALDYWGQGTLVTVSS VL: DIQMTQSPSSLSASVGDRVTITCRASQSILTYVNWYQQKPGKAPKLVIYAATSRASGVPSRFSGSGSGTDFTLTISSLQPEDFATYYCQQSYELPLTFGGGTKVEIK | 0.208 OD |
| 373_H09 (antibody, V domains shown) VH: EVQLLESGGGLVQPGGSLRLSCAASGFTFSSYGMNWVRQAPGKGLEWVASINYNSGYKSYADSVKGRFTISRDNSKNTLYLQMNSLRAEDTAVYYCARGANWHDTHLDYWGQGTLVTVSS VL: DIQMTQSPSSLSASVGDRVTITCRASQSIITYLNWYQQKPGKAPKLVIYAATSRASGVPSRFSGSGSGTDFTLTISSLQPEDFATYYCQQSDDSPLTFGGGTKVEIK | 0.166 OD |
| 373_A11 (antibody, V domains shown) VH: EVQLLESGGGLVQPGGSLRLSCAASGFTFSNYGMNWVRQAPGKGLEWVANINYNGGYTGYADSVKGRFTISRDNSKNTLYLQMNSLRAEDTAVYYCARGANWHDTALDYWGQGTLVTVSS VL: DIQMTQSPSSLSASVGDRVTITCRASQSILTYLNWYQQKPGKAPKLLIYAATSRASGVPSRFSGSGSGTDFTLTISSLQPEDFATYYCQQSYDLPLTFGGGTKVEIK | 0.184 OD |
| 373_C07 (antibody, V domains shown) VH: EVQLLESGGGLVQPGGSLRLSCAASGFTFDSYSMNWVRQAPGKGLEWVAGINYNSGYTSYADSVKGRFTISRDNSKNTLYLQMNSLRAEDTAVYYCARGANWHDTHLDYWGQGTLVTVSS VL: DIQMTQSPSSLSASVGDRVTITCRASQSILTYLNWYQQKPGKAPKLVIYAATSRASGVPSRFSGSGSGTDFTLTISSLQPEDFATYYCQQSYETPLTFGGGTKVEIK | 0.206 OD |
| 368_A02 (antibody, V domains shown) VH: EVQLLESGGGLVQPGGSLRLSCAASGFTFDSYGMNWVRQAPGKGLEWVAGINYNGGYKSYADSVKGRFTISRDNSKNTLYLQMNSLRAEDTAVYYCARAANWHDTHLDYWGQGTLVTVSS VL: DIQMTQSPSSLSASVGDRVTITCRASQSIISYVNWYQQKPGKAPKLVIYAATSRASGVPSRFSGSGSGTDFTLTISSLQPEDFATYYCQQSYDTPLTFGGGTKVEIK | 0.376 OD |
| 373_H07 (antibody, V domains shown) VH: EVQLLESGGGLVQPGGSLRLSCAASGFTFSSYSMNWVRQAPGKGLEWVAGINYNGGYTSYADSVKGRFTISRDNSKNTLYLQMNSLRAEDTAVYYCARGANWHDTHLDYWGQGTLVTVSS VL: DIQMTQSPSSLSASVGDRVTITCRASQSIVTYLNWYQQKPGKAPKLLIYAASSLQSGVPSRFSGSGSGTDFTLTISSLQPEDFATYYCQQSYDSPLTFGGGTKVEIK | 0.199 OD |
| 373_A09 (antibody, V domains shown) VH: EVQLLESGGGLVQPGGSLRLSCAASGFTFDSYSMNWVRQAPGKGLEWVAGINYNGGYTSYADSVKGRFTISRDNSKNTLYLQMNSLRAEDTAVYYCARGANWHDTALDYWGQGTLVTVSS VL: DIQMTQSPSSLSASVGDRVTITCRASQSILTYLNWYQQKPGKAPKLLIYAATSLASGVPSRFSGSGSGTDFTLTISSLQPEDFATYYCQQSYDTPLTFGGGTKVEIK | 0.248 OD |
| 373_A12 (antibody, V domains shown) VH: EVQLLESGGGLVQPGGSLRLSCAASGFTFSSYSMNWVRQAPGKGLEWVSSINYNGGYTSYADSVKGRFTISRDNSKNTLYLQMNSLRAEDTAVYYCARGANWHDTALDYWGQGTLVTVSS VL: DIQMTQSPSSLSASVGDRVTITCRASQSILTYLNWYQQKPGKAPKLVIYAATSRASGVPSRFSGSGSGTDFTLTISSLQPEDFATYYCQQSYDTPLTFGGGTKVEIK | 0.179 OD |
| 373_F12 (antibody, V domains shown) VH: EVQLLESGGGLVQPGGSLRLSCAASGFTFSSYSMNWVRQAPGKGLEWVSNINYNGGYTGYADSVKGRFTISRDNSKNTLYLQMNSLRAEDTAVYYCARGANWHDTALDYWGQGTLVTVSS VL: DIQMTQSPSSLSASVGDRVTITCRASQSISTYLNWYQQKPGKAPKLVIYAATSRASGVPSRFSGSGSGTDFTLTISSLQPEDFATYYCQQSYETPLTFGGGTKVEIK | 0.158 OD |
| 367_H01 (antibody, V domains shown) VH: EVQLLESGGGLVQPGGSLRLSCAASGFTFDSYGMNWVRQAPGKGLEWVSGINYNGGYKSYADSVKGRFTISRDNSKNTLYLQMNSLRAEDTAVYYCARAANWHDTALDYWGQGTLVTVSS VL: DIQMTQSPSSLSASVGDRVTITCRASQSILTYLNWYQQKPGKAPKLVIYAATSRASGVPSRFSGSGSGTDFTLTISSLQPEDFATYYCQQSYDNPLTFGGGTKVEIK | 0.388 OD |
| 373_G08 (antibody, V domains shown) VH: EVQLLESGGGLVQPGGSLRLSCAASGFTFDSYSMNWVRQAPGKGLEWVSNINYNGGYTSYADSVKGRFTISRDNSKNTLYLQMNSLRAEDTAVYYCARGANWHDTALDYWGQGTLVTVSS VL: DIQMTQSPSSLSASVGDRVTITCRASQSILTYLNWYQQKPGKAPKLLIYAATSLASGVPSRFSGSGSGTDFTLTISSLQPEDFATYYCQQSYDSPLTFGGGTKVEIK | 0.172 OD |
| 373_H03 (antibody, V domains shown) VH: EVQLLESGGGLVQPGGSLRLSCAASGFTFSSYSMNWVRQAPGKGLEWVSGINYNSGYKSYADSVKGRFTISRDNSKNTLYLQMNSLRAEDTAVYYCARGANWHDTALDYWGQGTLVTVSS VL: DIQMTQSPSSLSASVGDRVTITCRASQSILSYLNWYQQKPGKAPKLLIYATTSRASGVPSRFSGSGSGTDFTLTISSLQPEDFATYYCQQSYENPLTFGGGTKVEIK | 0.172 OD |
